Measured values reported in patent US20240301385, “DNA MODIFYING ENZYMES AND ACTIVE FRAGMENTS AND VARIANTS THEREOF AND METHODS OF USE” (LIFEEDIT THERAPEUTICS, INC., published 2024).

Key:
[1] = molecular target: APG05840.1-L16-nAPG07433.1-USP2 (synthetic); test: cell_activity; HEK293FT; PAM SEQ 152; details: tags: SV40 NLS, 3xFLAG N-term; USP2, nucleoplasmin NLS C-term
In short: (§1)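 Editing read out by next-generation sequencing (MiSeq 2×250) of PCR amplicons spanning the target site, analysed for INDELs or % cytosine conversion per position (position 1 nearest PAM).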

[2] = molecular target: T1, APG30125-L32-nAPG07433.1 (synthetic); test: cell_activity; HEK293FT; PAM SEQ 152; details: tags: SV40 NLS, 3xFLAG N-term; nucleoplasmin NLS C-term
T1 chain: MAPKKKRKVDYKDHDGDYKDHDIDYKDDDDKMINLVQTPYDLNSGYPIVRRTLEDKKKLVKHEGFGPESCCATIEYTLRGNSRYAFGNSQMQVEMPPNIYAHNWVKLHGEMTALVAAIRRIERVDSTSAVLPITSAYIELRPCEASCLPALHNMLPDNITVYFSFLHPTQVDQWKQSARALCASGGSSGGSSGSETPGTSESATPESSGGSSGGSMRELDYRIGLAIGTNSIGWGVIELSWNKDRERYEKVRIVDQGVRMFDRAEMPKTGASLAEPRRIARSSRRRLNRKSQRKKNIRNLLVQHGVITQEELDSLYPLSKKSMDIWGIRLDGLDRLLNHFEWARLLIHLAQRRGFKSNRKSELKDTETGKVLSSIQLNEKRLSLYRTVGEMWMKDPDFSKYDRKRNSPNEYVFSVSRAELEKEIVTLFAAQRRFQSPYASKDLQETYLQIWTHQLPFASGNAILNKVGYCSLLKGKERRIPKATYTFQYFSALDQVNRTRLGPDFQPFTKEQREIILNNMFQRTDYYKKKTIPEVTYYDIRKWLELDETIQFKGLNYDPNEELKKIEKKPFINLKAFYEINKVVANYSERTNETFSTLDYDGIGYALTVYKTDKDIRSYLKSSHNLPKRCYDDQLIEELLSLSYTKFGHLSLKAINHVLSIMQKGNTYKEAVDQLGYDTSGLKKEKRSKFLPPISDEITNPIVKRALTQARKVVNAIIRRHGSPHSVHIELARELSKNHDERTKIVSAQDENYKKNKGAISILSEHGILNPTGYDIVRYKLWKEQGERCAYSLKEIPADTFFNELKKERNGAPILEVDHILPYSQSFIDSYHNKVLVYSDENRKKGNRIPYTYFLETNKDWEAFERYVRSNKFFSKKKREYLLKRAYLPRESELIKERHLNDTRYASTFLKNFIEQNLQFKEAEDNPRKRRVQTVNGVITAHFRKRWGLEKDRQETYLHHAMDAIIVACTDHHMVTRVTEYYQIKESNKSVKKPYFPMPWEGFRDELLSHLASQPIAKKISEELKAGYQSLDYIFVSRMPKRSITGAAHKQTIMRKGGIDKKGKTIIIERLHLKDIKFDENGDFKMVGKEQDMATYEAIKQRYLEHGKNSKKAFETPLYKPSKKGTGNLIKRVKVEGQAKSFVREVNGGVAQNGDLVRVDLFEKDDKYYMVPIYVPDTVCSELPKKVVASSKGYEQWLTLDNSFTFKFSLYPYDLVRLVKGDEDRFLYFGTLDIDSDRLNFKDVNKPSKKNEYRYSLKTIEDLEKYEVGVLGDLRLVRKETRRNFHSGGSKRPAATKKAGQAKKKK
In short: as §1

B1: SGN001101 sgRNA ; SGN001101 target (ssRNA ; dsDNA)
RNA: AUAUUUUCUUUAAUGGUGCCAGGCAGUCAUAGUUCCAUUAAAGCCAAAAGUGGCUUUGAUGUUUCUAUGAUAAGGGUUUCGACCCGUGGCGUCGGGGAUCGCCUGCCCAUUGAAAUGGGCUUCUCCCCAU
DNA 1: ATATTTTCTTTAATGGTGCCAGGCA
DNA 2: TGCCTGGCACCATTAAAGAAAATAT
activity [1]: 12.7 % mutated reads

B2: SGN000930 sgRNA ; SGN000930 target (ssRNA ; dsDNA)
RNA: GAACAACUCAAAUGGAAAUGAAUAUGUCAUAGUUCCAUGAAAGCCAAAAGUGGCUUUGAUGUUUCUAUGAUAAGGGUUUCGGCCCGUGGCGUCGGGGAUCGCCUGCCCAUUCCGAUGGGCUUCUCCCCAUUUAUU
DNA 1: GAACAACTCAAATGGAAATGAATAT
DNA 2: ATATTCATTTCCATTTGAGTTGTTC
activity [1]: 13.1 % mutated reads

B3: SGN000929 sgRNA ; SGN000929 target (ssRNA ; dsDNA)
RNA: AUCUGGAGGGAACUUACAGCAUAUGGUCAUAGUUCCAUGAAAGCCAAAAGUGGCUUUGAUGUUUCUAUGAUAAGGGUUUCGGCCCGUGGCGUCGGGGAUCGCCUGCCCAUUCCGAUGGGCUUCUCCCCAUUUAUU
DNA 1: ATCTGGAGGGAACTTACAGCATATG
DNA 2: CATATGCTGTAAGTTCCCTCCAGAT
activity [2]: 7.39 % mutated reads

B4: SGN000169 sgRNA ; SGN000169 target (ssRNA ; dsDNA)
RNA: CACAUCUCGAGCAAGACGUUGUCAUAGUUCCAUUAAAGCCAAAAGUGGCUUUGAUGUUUCUAUGAUAAGGGUUUCGACCCGUGGCGUCGGGGAUCGCCUGCCCAUUGAAAUGGGCUUCUCCCCAUUUAUU
DNA 1: CACATCTCGAGCAAGACGTT
DNA 2: AACGTCTTGCTCGAGATGTG
activity [2]: 6.89 % mutated reads
